T1: Rabbit TFPI (rabbit, UniProt P19761 25-300, limits assumed)
T1 sequence (looked up): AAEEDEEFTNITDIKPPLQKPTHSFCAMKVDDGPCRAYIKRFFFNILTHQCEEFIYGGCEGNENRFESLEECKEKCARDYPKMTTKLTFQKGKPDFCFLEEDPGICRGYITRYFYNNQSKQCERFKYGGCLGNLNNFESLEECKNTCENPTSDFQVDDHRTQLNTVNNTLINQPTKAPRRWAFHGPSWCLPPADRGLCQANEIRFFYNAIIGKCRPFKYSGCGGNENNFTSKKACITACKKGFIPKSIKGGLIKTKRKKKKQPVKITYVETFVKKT

T2: full length human TFPI (human, UniProt P10646 29-304)
T2 construct: also called wild type (wt) TFPI; TFPI Fl
T2 sequence: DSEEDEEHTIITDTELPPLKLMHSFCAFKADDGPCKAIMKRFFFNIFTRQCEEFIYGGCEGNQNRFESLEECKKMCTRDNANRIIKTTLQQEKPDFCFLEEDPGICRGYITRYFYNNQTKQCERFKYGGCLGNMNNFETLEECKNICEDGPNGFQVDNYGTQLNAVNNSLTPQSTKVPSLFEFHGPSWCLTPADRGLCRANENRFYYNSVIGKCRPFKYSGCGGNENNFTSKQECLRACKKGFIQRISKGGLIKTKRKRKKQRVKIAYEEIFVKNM

T3: truncated TFPI (1-239) (human, UniProt P10646 29-267)
T3 construct: Expressed in HEK293-F cells; conditioned medium used
T3 sequence: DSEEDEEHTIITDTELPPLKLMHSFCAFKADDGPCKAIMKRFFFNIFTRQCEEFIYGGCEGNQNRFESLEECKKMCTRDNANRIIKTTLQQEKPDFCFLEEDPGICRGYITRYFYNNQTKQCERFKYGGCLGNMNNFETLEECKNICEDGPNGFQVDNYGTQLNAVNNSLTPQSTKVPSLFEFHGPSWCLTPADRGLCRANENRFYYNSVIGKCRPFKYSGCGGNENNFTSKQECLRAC

T4: truncated TFPI (1-240) (human, UniProt P10646 29-268)
T4 construct: Expressed in HEK293-F cells; conditioned medium used
T4 sequence: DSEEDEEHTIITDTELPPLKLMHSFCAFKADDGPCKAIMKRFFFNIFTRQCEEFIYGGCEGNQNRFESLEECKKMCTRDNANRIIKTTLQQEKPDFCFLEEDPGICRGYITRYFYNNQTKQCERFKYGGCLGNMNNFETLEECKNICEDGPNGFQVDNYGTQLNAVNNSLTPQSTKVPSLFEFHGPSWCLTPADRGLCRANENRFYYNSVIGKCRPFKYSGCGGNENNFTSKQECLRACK


What was measured:
Rabbit TFPI = biological target: T1, Rabbit TFPI; assay: SPR (Biacore 3000), mAb captured on immobilised anti-mouse IgG, TFPI in solution, 1:1 model
Protocol: (§1) Binding interaction analysis was obtained by Surface Plasmon Resonance in a Biacore 3000. Capture of the relevant monoclonal antibody at a fixed concentration was obtained with immobilised mouse anti-IgG. Different concentrations of TFPI were tested. Determination of binding constants (kₒₙ, koff, KD) was obtained assuming a 1:1 interaction of TFPI and the antibody of interest.

full length human TFPI = biological target: T2, full length human TFPI; assay: as above
Protocol: as §1

truncated TFPI (1-239) = biological target: T3, truncated TFPI (1-239); assay: binding of TFPI variants to anti-TFPI MAbs relative to TFPI-WT (=1.0); ELISA or ForteBio with HEK293-F conditioned medium, Example 7
Protocol: (§2) The effect of truncating the C-terminal tail of TFPI on TFPI's binding affinity to MuTFPI22F66, MuTFPI22F71, MuTFPI22F74, MuTFPI22F79 and MuTFPI22F132 was analyzed by means of ELISA, or real-time binding analysis, using the ForteBio platform. […] The ELISAs, or the real-time binding analyses, were carried out using the conditioned medium from the cell cultures.
(§3) The concentrations of wt TFPI and truncated TFPI mutants in the conditioned medium were estimated by means of an ELISA that binds TFPI K1-K2 (Goat anti-TFPI, in-house) and K2 (MAb4F36, in-house). The binding to these antibodies is not affected by the truncations. Alternatively, biotin-labelled MAb4F36 was captured on streptavidin coated BioSensor tips (ForteBio) and used for concentration estimations.
(§4) In the ELISA setting, the effect of the mutations on TFPI's ability to bind to MuTFPI22F66, MuTFPI22F71, MuTFPI22F74, MuTFPI22F79 or MuTFPI22F132 was analyzed using each of the listed MAbs as capturing antibody and using MAb4F36 for detection. Direct binding of TFPI variants to biotin-labelled MuTFPI22F66, MuTFPI22F71, MuTFPI22F74, MuTFPI22F79, and MuTFPI22F132, captured on streptavidin coated BioSensor tips (ForteBio), was measured using the ForteBio platform.

truncated TFPI (1-240) = biological target: T4, truncated TFPI (1-240); assay: as above
Protocol: as §2, §3, §4

Row | Binder | Kd (Rabbit TFPI) [nM] | Kd (full length human TFPI) [nM] | binding result (truncated TFPI (1-239)) | binding result (truncated TFPI (1-240))
1 | MuTFPI22F71 (antibody, mouse IgG1, V domains shown, also called anti-TFPI22F71) VH: EVQLQQSGTVLARPGASVKMSCKASGYSFTTYWIHWVKQRPGQGLEWIGAIDPGNSDATYSQKFKDKAKLTAVTSASTAFMELNSLTNDDSAVYYCSREVYYGYDGDYFDYWGQGTTLTVSS VL: DIVLTQSPASLAVSLGQRATISCRASESVSVHGTHLMHWYQQKPGQPPKLLIYAASKLESGVPARFSGSGSETDFTLNIHPVEEEDAATYFCQQSIGDPWTFGGGTKLEIKR | 0.18 | 0.8 | no binding | –
2 | MuTFPI22F66 (antibody, mouse IgG1, V domains shown, also called anti-TFPI22F66) VH: EVQLQQSGPELVKPGASMKISCKASGYSFTGYPMNWVRQSHGKNLEWIGLINPYNGDTTFNQKFKGKATLTVDKSSSTAYMELLSLTSEDSAVYYCARGTYEYVDYWGQGTTLTVSS VL: QIVLTQSPTIMSASPGERVTMTCSASSSVFYMHWYQQKPGSSPRLLIYDTSILSSGVPVRFSGSGSGTSYSLTIRRMEAEDAATYYCQQWSSYPLTFGAGTKLELKR | 3.76 | 0.6 | no binding | no binding
3 | MuTFPI4F110 (antibody, mouse IgG1, V domains shown, also called anti-TFPI4F110; mAb 4F110) VH: QVQLQQSGAELVKPGASVKLSCKASGYTFISYYMYWVKQRPGQGLEWIGEINPSNGDTNLNEKFKSKATLTVDKSSSTVYMQLSSLTSEDSAVYYCTRWDRFDGFVYWGQGTLVTVSA VL: ETTVTQSPASLSMAIGGKVTIRCIISTNIDDDINWYQQKPGEPPKLLISEGNTLRPGVPSRFSSSGYGTDFVFTIENMLSEDVADYYCLQSDDLPYTFGGGTKLEIKR | – | 0.002 | – | –

Reference: patent US20130253173A1 (Novo Nordisk, published 2013)
